Laboratory results from patent US20190322728A1 (PROTHENA BIOSCIENCES, published 2019).

T1: tau peptide, residues 25-44 of SEQ ID NO: 1 (human)
T1 construct: Proteolytic fragment (LysC and trypsin digests) of rTau, precipitated by 16B5 and identified by MALDI-TOF/TOF
T1 peptide: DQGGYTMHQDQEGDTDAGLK

T2: tau peptide, residues 24-44 of SEQ ID NO: 1 (human)
T2 construct: Tryptic fragment of rTau, precipitated by 16B5 and identified by MALDI-TOF/TOF
T2 peptide: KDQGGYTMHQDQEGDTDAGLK


Key:
[1] = target: recombinant purified hTau-P301L (human) (UniProt P10636); assay: SPR (Biacore T200), antibody held by a capture antibody on a CM5 chip, hTau-P301L as analyte
[2] = target: T3, tau deletion mutant Δ25-44 (printed A25-44) (human, UniProt P10636 1-758); assay: Western blot of bacterial lysate
T3 construct: Deletion mutant of rTau, tested in clarified bacterial lysate; The limits of the pieces are derived from the printed deletion

[3] = target: T4, tau deletion mutant Δ30-39 (printed A30-39) (human, UniProt P10636 1-758); assay: Western blot of bacterial lysate
T4 construct: Deletion mutant of rTau, tested in clarified bacterial lysate; The limits of the pieces are derived from the printed deletion

[4] = target: T5, tau deletion mutant Δ23-32 (printed A23-32) (human, UniProt P10636 1-758); assay: Western blot of bacterial lysate, antibody at 0.2 µg/mL
T5 construct: Deletion mutant of rTau, tested in clarified bacterial lysate; The limits of the pieces are derived from the printed deletion

[5] = target: T1, tau peptide, residues 25-44 of SEQ ID …; assay: precipitation of protease fragments of rTau with 16B5, HPLC, MALDI-TOF/TOF
[6] = target: T2, tau peptide, residues 24-44 of SEQ ID …; assay: as above
[7] = target: T6, tau deletion mutant Δ5-24 (printed A5-24) (human, UniProt P10636-6 1-383); assay: Western blot of bacterial lysate, 16B5 at 0.2 ug/mL
T6 construct: Deletion mutant of rTau, tested in clarified bacterial lysate; The limits of the pieces are derived from the printed deletion

[8] = target: T7, rTau: human tau with 4 microtubule binding repeats and no N-terminal inserts, containing a P301L mutation (human, UniProt P10636 2-758); assay: as above
T7 construct: Expressed in E. coli and purified; It is the parent of the deletion mutants; also called full-length Tau; wild-type Tau (WT) of the blots
T7 sequence (P10636 other isoform, or with tags, fused parts or gaps P301L P301L limits assumed): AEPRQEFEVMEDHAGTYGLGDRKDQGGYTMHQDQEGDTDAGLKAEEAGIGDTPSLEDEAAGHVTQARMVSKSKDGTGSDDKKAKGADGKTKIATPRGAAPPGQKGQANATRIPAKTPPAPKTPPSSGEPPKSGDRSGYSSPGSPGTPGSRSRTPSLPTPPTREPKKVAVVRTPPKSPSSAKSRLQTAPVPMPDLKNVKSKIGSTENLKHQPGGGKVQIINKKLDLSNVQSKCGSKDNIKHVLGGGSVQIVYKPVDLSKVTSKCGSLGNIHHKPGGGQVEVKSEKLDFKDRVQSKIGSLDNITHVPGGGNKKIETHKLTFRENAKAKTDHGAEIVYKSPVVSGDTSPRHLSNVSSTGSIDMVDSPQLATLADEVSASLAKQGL

Sequence of recombinant purified hTau-P301L (human) (P10636 other isoform, or with tags, fused parts or gaps P301L P301L): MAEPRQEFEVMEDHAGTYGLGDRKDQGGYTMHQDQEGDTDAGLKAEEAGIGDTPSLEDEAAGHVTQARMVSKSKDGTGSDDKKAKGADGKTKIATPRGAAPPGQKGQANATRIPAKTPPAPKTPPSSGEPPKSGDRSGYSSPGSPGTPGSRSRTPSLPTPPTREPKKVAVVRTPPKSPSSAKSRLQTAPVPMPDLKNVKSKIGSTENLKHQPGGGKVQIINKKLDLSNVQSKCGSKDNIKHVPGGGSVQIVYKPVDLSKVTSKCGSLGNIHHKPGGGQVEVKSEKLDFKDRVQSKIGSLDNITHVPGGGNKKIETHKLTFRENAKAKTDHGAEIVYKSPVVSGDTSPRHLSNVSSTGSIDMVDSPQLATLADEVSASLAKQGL
T3 sequence (P10636 other isoform, or with tags, fused parts or gaps mutant): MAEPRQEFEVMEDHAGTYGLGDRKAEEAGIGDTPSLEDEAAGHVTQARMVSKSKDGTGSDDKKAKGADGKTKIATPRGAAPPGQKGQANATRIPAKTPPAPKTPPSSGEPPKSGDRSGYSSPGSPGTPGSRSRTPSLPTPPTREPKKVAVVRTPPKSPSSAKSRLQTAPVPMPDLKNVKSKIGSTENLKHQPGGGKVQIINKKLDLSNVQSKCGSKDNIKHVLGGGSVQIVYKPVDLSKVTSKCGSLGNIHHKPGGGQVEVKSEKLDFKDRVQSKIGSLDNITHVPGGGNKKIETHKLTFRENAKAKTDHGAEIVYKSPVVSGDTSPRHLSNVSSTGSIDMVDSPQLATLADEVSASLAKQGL
T5 sequence (P10636 other isoform, or with tags, fused parts or gaps mutant): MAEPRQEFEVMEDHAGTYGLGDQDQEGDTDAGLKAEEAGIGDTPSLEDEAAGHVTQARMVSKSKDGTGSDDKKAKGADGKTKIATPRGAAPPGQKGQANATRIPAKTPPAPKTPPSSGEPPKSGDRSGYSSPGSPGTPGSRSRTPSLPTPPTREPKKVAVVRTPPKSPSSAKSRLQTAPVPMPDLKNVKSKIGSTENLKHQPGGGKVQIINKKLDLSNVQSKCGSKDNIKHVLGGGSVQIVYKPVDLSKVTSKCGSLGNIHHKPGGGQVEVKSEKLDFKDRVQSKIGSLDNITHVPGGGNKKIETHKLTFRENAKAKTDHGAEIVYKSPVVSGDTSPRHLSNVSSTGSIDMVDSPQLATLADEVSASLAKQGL
T4 sequence (P10636 other isoform, or with tags, fused parts or gaps mutant): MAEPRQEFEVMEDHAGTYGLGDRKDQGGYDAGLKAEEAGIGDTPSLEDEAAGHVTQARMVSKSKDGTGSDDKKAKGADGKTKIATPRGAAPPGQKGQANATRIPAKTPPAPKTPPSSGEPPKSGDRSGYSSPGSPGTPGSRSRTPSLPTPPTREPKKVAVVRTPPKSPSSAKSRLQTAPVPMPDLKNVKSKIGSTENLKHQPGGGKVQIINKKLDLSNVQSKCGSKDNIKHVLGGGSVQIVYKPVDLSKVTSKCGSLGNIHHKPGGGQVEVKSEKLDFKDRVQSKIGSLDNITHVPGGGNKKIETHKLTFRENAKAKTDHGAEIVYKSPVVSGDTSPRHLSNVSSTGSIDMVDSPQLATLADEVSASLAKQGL
T6 sequence (P10636 other isoform, or with tags, fused parts or gaps mutant): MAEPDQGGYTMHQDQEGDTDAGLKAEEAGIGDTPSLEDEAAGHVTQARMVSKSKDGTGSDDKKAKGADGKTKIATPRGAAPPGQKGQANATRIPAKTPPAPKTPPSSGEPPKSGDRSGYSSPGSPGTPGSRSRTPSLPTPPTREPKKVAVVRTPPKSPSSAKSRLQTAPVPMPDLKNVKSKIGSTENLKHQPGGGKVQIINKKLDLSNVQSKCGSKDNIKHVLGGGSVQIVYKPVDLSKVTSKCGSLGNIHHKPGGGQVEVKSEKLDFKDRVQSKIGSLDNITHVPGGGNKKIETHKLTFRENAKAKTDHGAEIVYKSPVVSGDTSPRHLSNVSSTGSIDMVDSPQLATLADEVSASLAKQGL

Kd [1] [pM] | koff [1] [s⁻¹] | kon [1] [M⁻¹ s⁻¹] | Binder | other results
2.32 |  |  | 16B5 monoclonal antibody (mouse) (antibody, V domains shown, Mouse monoclonal antibody; The control 6F10 is called an IgG1 isotype control; also called Murine 16B5; pan antibody 16B5) VH: QIQLVQSGPELKKPGETVKISCKASGYPFTYHGMDWVKQAPWGGLEWMGWINTYSGVPTYADDFKGRFAFSLETSVGTAYLQINNLKNEDTATYFCARRRDFTMDFWGQGTSVTVSS VL: NIVLSQSPSSLAVSPGEKVTMSCKSSQSLLNSRTRKNYLAWFQQKPGQSPKLLIYWASTRESGVPDRFTGSGSGTDFTLTISSVQAEDLAVYYCKQSYTLRTFGGGTNLEIKR | binding result [2]: no binding (tested: 0.2 µg/mL antibody); binding result [3]: no binding (tested: 0.2 µg/mL antibody); binding result [4]: binds; binding result [5]: binds; binding result [6]: binds; binding result [7]: binds; binding result [8]: binds
2.94 | 0.000131 | 4.47e+07 | humanized 16B5, version H1L2 (antibody, V domains shown) VH: QVQLVQSGSELKKPGASVKVSCKASGYPFTYHGMDWVRQAPGQGLEWMGWINTYSGVPTYADDFKGRFVFSLDTSVSTAYLQISSLKAEDTAVYFCARRRDFTMDFWGQGTTVTVSS VL: NIVLTQSPDSLAVSLGERATINCKSSQSLLNSRTRKNYLAWFQQKPGQSPKLLIYWASTRESGVPDRFSGSGSGTDFTLTISSLQAEDVAVYYCKQSYTLRTFGGGTKVEIKR | 
3.95 | 0.000171 | 4.34e+07 | humanized 16B5, version H2L4 (antibody, V domains shown) VH: EVQLVQSGSELKKPGASVKVSCKASGYPFTYHGMDWVRQAPGQGLEWMGWINTYSGVPTYADDFKGRFVFSLDTSVSTAYLQISSLKAEDTAVYFCARRRDFTMDFWGQGTTVTVSS VL: NIVLTQSPSSLAVSLGERATINCKSSQSLLNSRTRKNYLAWFQQKPGQSPKLLIYWASTRESGVPDRFSGSGSGTDFTLTISSLQAEDVAVYYCKQSYTLRTFGGGTKVEIKR | 
2.86 | 0.000138 | 4.85e+07 | humanized 16B5, version H2L2 (antibody, V domains shown) VH: EVQLVQSGSELKKPGASVKVSCKASGYPFTYHGMDWVRQAPGQGLEWMGWINTYSGVPTYADDFKGRFVFSLDTSVSTAYLQISSLKAEDTAVYFCARRRDFTMDFWGQGTTVTVSS VL: NIVLTQSPDSLAVSLGERATINCKSSQSLLNSRTRKNYLAWFQQKPGQSPKLLIYWASTRESGVPDRFSGSGSGTDFTLTISSLQAEDVAVYYCKQSYTLRTFGGGTKVEIKR | 
3.15 | 0.000137 | 4.36e+07 | humanized 16B5, version H1L4 (antibody, V domains shown) VH: QVQLVQSGSELKKPGASVKVSCKASGYPFTYHGMDWVRQAPGQGLEWMGWINTYSGVPTYADDFKGRFVFSLDTSVSTAYLQISSLKAEDTAVYFCARRRDFTMDFWGQGTTVTVSS VL: NIVLTQSPSSLAVSLGERATINCKSSQSLLNSRTRKNYLAWFQQKPGQSPKLLIYWASTRESGVPDRFSGSGSGTDFTLTISSLQAEDVAVYYCKQSYTLRTFGGGTKVEIKR | 
 |  |  | humanized 16B5, version H1L1 (antibody, V domains shown) VH: QVQLVQSGSELKKPGASVKVSCKASGYPFTYHGMDWVRQAPGQGLEWMGWINTYSGVPTYADDFKGRFVFSLDTSVSTAYLQISSLKAEDTAVYFCARRRDFTMDFWGQGTTVTVSS VL: NIVLTQSPDSLAVSLGERATINCKSSQSLLNSRTRKNYLAWFQQKPGQPPKLLIYWASTRESGVPDRFSGSGSGTDFTLTISSLQAEDVAVYYCKQSYTLRTFGGGTKVEIKR | dissociation constant relative to the chimeric antibody (fold of chimeric 16B5) [1]: 0.33
